These results are taken from paper PMC5711802, “Conservation of folding and association within a family of spidroin N-terminal domains” (Scientific Reports, 2017).

A word on the kon: it is the second-order rate constant of association. A low value points to slower complex formation. One may read the stoichiometry N as a count of units in the complex or per binding partner. A word on the koff: it is the rate constant with which the complex falls apart. Higher therefore signals fast dissociation. A word on the Kd: it is the equilibrium constant for the complex coming apart.

In data set [1] the target is MaSp1 NTD Q50C-AttoOxa11, L. geometricus Q50C. Description: stopped-flow AttoOxa11 fluorescence, chasing experiment (dissociation kinetics). To be noted: pH 6.0; 298 K; I adjusted to 60 mM using potassium chloride; 20 mM MES pH 6.0.
Data set [2] concerns the target MaSp1 NTD Q50C-AttoOxa11, E. australis Q50C (UniProt Q05H60). The description is as above. To be noted: pH 6.0; 298 K; I adjusted to 60 mM using potassium chloride; 20 mM MES pH 6.0.
Data set [3] addresses MaSp1 N-terminal domain (NTD), N. clavipes (UniProt B5SYS5). Description: Kd calculated by the authors from the stopped-flow rate constants (kdiss from C4 / kass from C3). Particulars: pH 6.0; 298 K; about 60 mM (KCl) for kdiss; not stated exactly for kass; 20 mM MES pH 6.0.
Data set [4] shares this target. In words: stopped-flow Trp fluorescence, pH jump (association kinetics). Particulars: pH 6.0; 298 K; final value not stated (sample at I 150 mM KCl diluted 1:11 into 20 mM MES pH 6.0); 20 mM MES pH 6.0 after mixing (start: 10 mM MES pH 7.0).
Data set [5] addresses MaSp1 N-terminal domain (NTD), L. geometricus. Description: Kd calculated by the authors from the stopped-flow rate constants (kdiss from C4 / kass from C3). Particulars: pH 6.0; 298 K; about 60 mM (KCl) for kdiss; not stated exactly for kass; 20 mM MES pH 6.0.
The target is the same in data set [6]. Description: stopped-flow Trp fluorescence, pH jump (association kinetics). Particulars: pH 6.0; 298 K; final value not stated (sample at I 150 mM KCl diluted 1:11 into 20 mM MES pH 6.0); 20 mM MES pH 6.0 after mixing (start: 10 mM MES pH 7.0).
Data set [7] has as its target N-terminal domain (NTD) of major ampullate spidroin 1 (MaSp1) from Nephila clavipes (Nephila clavipes). Description: stopped-flow tryptophan fluorescence (association kinetics); monomer to dimer; monomeric NTD in 10 mM MES pH 7.0, I 150 mM (KCl), mixed 1:11 into 20 mM MES pH 6.0; three concentrations between 0.1 and 1 uM; 298 K; fit to a kinetic model of dimerization.

The target is the same in data set [8]. In words: stopped-flow tryptophan fluorescence + other: stopped-flow AttoOxa11 fluorescence chasing experiment; dimer to monomers; Kd calculated as k diss/k ass from the two kinetic experiments; pH 6.0, 298 K.
For data set [9] the target is unchanged. In words: SEC-MALS; dimer conditions: 20 mM MES pH 6.0, ionic strength 60 mM (KCl); 100 uL at 5 mg/mL on Superdex-75 HR10/300, 0.5 ml/min. (In general: In gel filtration, larger molecules generally elute earlier.)
Data set [10] addresses MaSp1 N-terminal domain (NTD), L. hesperus (UniProt A6YIY1). Description: Kd calculated by the authors from the stopped-flow rate constants (kdiss from C4 / kass from C3). To be noted: pH 6.0; 298 K; about 60 mM (KCl) for kdiss; not stated exactly for kass; 20 mM MES pH 6.0.
For data set [11] the target is unchanged. In words: stopped-flow Trp fluorescence, pH jump (association kinetics). To be noted: pH 6.0; 298 K; final value not stated (sample at I 150 mM KCl diluted 1:11 into 20 mM MES pH 6.0); 20 mM MES pH 6.0 after mixing (start: 10 mM MES pH 7.0).
The target in data set [12] is AttoOxa11-modified Q50C mutant of the MaSp1 NTD from Euprosthenops australis (Euprosthenops australis). Description: stopped-flow AttoOxa11 fluorescence chasing experiment (dissociation kinetics); dimer to monomers; 0.1 uM dimeric AttoOxa11-modified NTD in 20 mM MES pH 6.0, I 60 mM (KCl), chased with 9 uM non-modified NTD in the same buffer; 0.3 mg/mL BSA and 0.05% Tween-20; 298 K; mono-exponential fit.

Data set [13] addresses N-terminal domain (NTD) of major ampullate spidroin 1 (MaSp1) from Latrodectus hesperus (Latrodectus hesperus). Description: stopped-flow tryptophan fluorescence (association kinetics); monomer to dimer; monomeric NTD in 10 mM MES pH 7.0, I 150 mM (KCl), mixed 1:11 into 20 mM MES pH 6.0; three concentrations between 0.1 and 1 uM; 298 K; fit to a kinetic model of dimerization.

For data set [14] the target is unchanged. In words: stopped-flow tryptophan fluorescence + other: stopped-flow AttoOxa11 fluorescence chasing experiment; dimer to monomers; Kd calculated as k diss/k ass from the two kinetic experiments; pH 6.0, 298 K.
Data set [15] shares this target. In words: SEC-MALS; dimer conditions: 20 mM MES pH 6.0, ionic strength 60 mM (KCl); 100 uL at 5 mg/mL on Superdex-75 HR10/300, 0.5 ml/min.
The target of data set [16] is MaSp1 NTD Q50C-AttoOxa11, N. clavipes Q50C (UniProt B5SYS5). In words: stopped-flow AttoOxa11 fluorescence, chasing experiment (dissociation kinetics). To be noted: pH 6.0; 298 K; I adjusted to 60 mM using potassium chloride; 20 mM MES pH 6.0.
The target in data set [17] is MaSp1 NTD Q50C-AttoOxa11, L. hesperus Q50C (UniProt A6YIY1). The description is as above. Particulars: pH 6.0; 298 K; I adjusted to 60 mM using potassium chloride; 20 mM MES pH 6.0.
The target in data set [18] is MaSp1 N-terminal domain (NTD), E. australis (UniProt Q05H60). Description: Kd calculated by the authors from the stopped-flow rate constants (kdiss from C4 / kass from C3). Particulars: pH 6.0; 298 K; about 60 mM (KCl) for kdiss; not stated exactly for kass; 20 mM MES pH 6.0.
Data set [19] has the same target. In words: stopped-flow Trp fluorescence, pH jump (association kinetics). Particulars: pH 6.0; 298 K; final value not stated (sample at I 150 mM KCl diluted 1:11 into 20 mM MES pH 6.0); 20 mM MES pH 6.0 after mixing (start: 10 mM MES pH 7.0).
Data set [20] deals with the molecule itself. Description: stopped-flow AttoOxa11 fluorescence chasing experiment (dissociation kinetics); dimer to monomers; 0.1 uM dimeric AttoOxa11-modified NTD in 20 mM MES pH 6.0, I 60 mM (KCl), chased with 9 uM non-modified NTD in the same buffer; 0.3 mg/mL BSA and 0.05% Tween-20; 298 K; mono-exponential fit.
Data set [21] concerns the molecule itself. In words: SEC-MALS; dimer conditions: 20 mM MES pH 6.0, ionic strength 60 mM (KCl); 100 uL at 5 mg/mL on Superdex-75 HR10/300, 0.5 ml/min.
Data set [22] deals with the molecule itself. Description: stopped-flow tryptophan fluorescence (association kinetics); monomer to dimer; monomeric NTD in 10 mM MES pH 7.0, I 150 mM (KCl), mixed 1:11 into 20 mM MES pH 6.0; three concentrations between 0.1 and 1 uM; 298 K; fit to a kinetic model of dimerization.
Data set [23] deals with the molecule itself. Description: stopped-flow tryptophan fluorescence + other: stopped-flow AttoOxa11 fluorescence chasing experiment; dimer to monomers; Kd calculated as k diss/k ass from the two kinetic experiments; pH 6.0, 298 K.
The target in data set [24] is T1, N-terminal domain (NTD) of major ampullate spidroin 1 (MaSp1) from Euprosthenops australis (Euprosthenops australis), Q05H60.
T1 chain: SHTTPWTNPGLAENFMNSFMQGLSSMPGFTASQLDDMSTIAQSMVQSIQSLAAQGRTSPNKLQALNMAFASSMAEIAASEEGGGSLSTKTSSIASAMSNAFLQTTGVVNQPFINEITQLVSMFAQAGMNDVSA
In words: stopped-flow tryptophan fluorescence (association kinetics); monomer to dimer; monomeric NTD in 10 mM MES pH 7.0, I 150 mM (KCl), mixed 1:11 into 20 mM MES pH 6.0; three concentrations between 0.1 and 1 uM; 298 K; fit to a kinetic model of dimerization. Particulars: remark: other sources report otherwise.

The target in data set [25] is T1, N-terminal domain (NTD) of major …. In words: SEC-MALS; dimer conditions: 20 mM MES pH 6.0, ionic strength 60 mM (KCl); 100 uL at 5 mg/mL on Superdex-75 HR10/300, 0.5 ml/min. Particulars: remark: other sources report otherwise.
Data set [26] has the same target. In words: stopped-flow tryptophan fluorescence + other: stopped-flow AttoOxa11 fluorescence chasing experiment; dimer to monomers; Kd calculated as k diss/k ass from the two kinetic experiments; pH 6.0, 298 K. To be noted: remark: other sources report otherwise.

The molecule “MaSp1 NTD Q50C-AttoOxa11, L. geometricus Q50C” displayed a k diss in data set [1] of 0.64 s⁻¹.
In [2], “MaSp1 NTD Q50C-AttoOxa11, E. australis Q50C” had a k diss of 1.68 s⁻¹.
Turning to “MaSp1 N-terminal domain (NTD), N. clavipes”, the K d in data set [3] was 0.73 10^-9 M. This molecule returned a k ass (10^9 M^-1 s^-1) in [4] of 2.58.
“MaSp1 N-terminal domain (NTD), L. geometricus”: the K d in [5] was 0.46 10^-9 M. In addition, the k ass (10^9 M^-1 s^-1) in [6] turned out to be 1.39.
As for “N-terminal domain (NTD) of major ampullate spidroin 1 (MaSp1) from Nephila clavipes (domain or fragment)”, the kon in data set [7] amounted to 2.58e+09 M⁻¹ s⁻¹. Besides, the K d in [8] is 0.73 nM. This molecule also displayed a stoichiometry N in data set [9] of 2.
Consider “MaSp1 N-terminal domain (NTD), L. hesperus”, for which, in data set [10], the K d was 0.14 10^-9 M. This molecule gave a k ass (10^9 M^-1 s^-1) in data set [11] of 2.19.
In turn, “AttoOxa11-modified Q50C mutant of the MaSp1 NTD from Euprosthenops australis (domain or fragment)” had a koff in data set [12] of 1.68 s⁻¹.
In data set [13], “N-terminal domain (NTD) of major ampullate spidroin 1 (MaSp1) from Latrodectus hesperus (domain or fragment)” came in with a kon of 2.19e+09 M⁻¹ s⁻¹. Further, the K d in data set [14] is 0.14 nM. The molecule further registered a stoichiometry N in data set [15] of 2.
As for “MaSp1 NTD Q50C-AttoOxa11, N. clavipes Q50C”, in data set [16], the k diss worked out at 1.88 s⁻¹.
As to “MaSp1 NTD Q50C-AttoOxa11, L. hesperus Q50C”, the k diss in [17] stood at 0.31 s⁻¹.
On to “MaSp1 N-terminal domain (NTD), E. australis”, for which the K d in data set [18] is 1.07 10^-9 M. In addition, the k ass (10^9 M^-1 s^-1) in data set [19] came to 1.58.

B1: AttoOxa11-modified Q50C mutant of the MaSp1 NTD from Latrodectus hesperus (domain or fragment)
chain: PWSSKANADAFINSFISAASNTGSFSQDQMEDMSLIGNTLMCAMDNMGGRITPSKLQALDMAFASSVAEIAASEGGDLGVTTNAIADALTSAFYQTTGVVNSRFISEIRSLIGMFAQASAN
modifications: AttoOxa11 (maleimide derivative) on the cysteine at sequence position 50
In the case of B1, the koff in data set [20] is 0.31 ± 0.02 s⁻¹.

B2: AttoOxa11-modified Q50C mutant of the MaSp1 NTD from Latrodectus geometricus (domain or fragment)
chain: PWSSKANADAFINSFISSAQNTGSFSQDQMDDMSLIGNTLMCAMDNMGGRITPSKLQALDMAFASSVAEIAASEGGDLGVTTNAIADALTSAFYQTTGVVNNRFISEIRSLISMFAQASAN
modifications: AttoOxa11 (maleimide derivative) on the cysteine at sequence position 50
As for B2, in data set [20], the koff is 0.64 ± 0.02 s⁻¹.

B3: N-terminal domain (NTD) of major ampullate spidroin 1 (MaSp1) from Latrodectus geometricus (domain or fragment)
chain: PWSSKANADAFINSFISSAQNTGSFSQDQMDDMSLIGNTLMTAMDNMGGRITPSKLQALDMAFASSVAEIAASEGGDLGVTTNAIADALTSAFYQTTGVVNNRFISEIRSLISMFAQASAN
For the molecule B3, the “stoichiometry N” value in data set [21] was found to be 2. This molecule gave a kon in [22] of 1.39e+09 M⁻¹ s⁻¹. In addition, in data set [23], the Kd was 0.46 nM.

B4: N-terminal domain (NTD) of major ampullate spidroin 1 (MaSp1) from Euprosthenops australis, Q05H60 24-156 (domain or fragment)
chain: SHTTPWTNPGLAENFMNSFMQGLSSMPGFTASQLDDMSTIAQSMVQSIQSLAAQGRTSPNKLQALNMAFASSMAEIAASEEGGGSLSTKTSSIASAMSNAFLQTTGVVNQPFINEITQLVSMFAQAGMNDVSA
In turn, B4 displayed a kon in data set [24] of 1.58e+09 M⁻¹ s⁻¹. Besides, the stoichiometry N in [25] turned out to be 2. Besides, the K d in [26] is 1.07 nM.

B5: AttoOxa11-modified Q50C mutant of the MaSp1 NTD from Nephila clavipes (domain or fragment)
chain: PWSSTELADAFINAFMNEAGRTGAFTADQLDDMSTIGDTIKCAMDKMARSNKSSKGKLQALNMAFASSMAEIAAVEQGGLSVDAKTNAIADSLNSAFYQTTGAANPQFVNEIRSLINMFAQSSAN
modifications: AttoOxa11 (maleimide derivative) on the cysteine at sequence position 50
With B5, in data set [20], the koff worked out at 1.88 ± 0.05 s⁻¹.
